Measured values published in US20200325476 (published 2020).

Assays:
[1] = target: T1, alpha-synuclein (monomer) (UniProt P37840 P37840:1-140); assay: MST; 1x PBS, 0.05% Tween-20, 25 C; 50 nM aptamer
[2] = target: T1, alpha-synuclein (monomer); assay: footprint; DNase I; apparent Kd estimated from three bands but value not given in text; DPBS, 37 C
[3] = target: T1, alpha-synuclein (monomer); assay: footprint; DNase I; positive control; apparent Kd estimated from three bands but value not given in text; DPBS, 37 C

B1: a-syn-3 (GdJUhe) (ssDNA)
DNA: ATAGTCCCATCATTCATTGTATGAGATGGGGTGGTGACGTCAGCATGGAGATATTAGCAAGTGTCA
[1]
  Kd: 94.2 nM

B2: a-syn-2 (1LBiGJFJC) (ssDNA)
DNA: ATAGTCCCATCATTCATTGTATGGTACGGCGCGGTGGCGGGTGCGGGGAGATATTAGCAAGTGTCA
[1]
  Kd: 286 nM

B3: a-syn-1 (1LBwAAjJ) (ssDNA)
DNA: ATAGTCCCATCATTCATTGTAAGGAAACGCTACGGGGTGGGTACGGCAAGATATTAGCAAGTGTCA
[2]
  binding result: binds

B4: M5-15 (ssDNA)
DNA: ATAGTCCCATCATTCATTGTATGGTACGGCGCGGTGGCGGGTGCGTGGAGATATTAGCAAGTGTCA
[3]
  binding result: binds
